Reference: patent US20250043302A1, “MUTATED HYDROXYPHENYLPYRUVATE DIOXYGENASE POLYPEPTIDE, AND CODING GENE AND USE THEREOF” (BEIJING DABEINONG BIOTECHNOLOGY CO., LTD., priority 2021, published 2025)
Residue numbers refer to the chain shown, from its start. Names may count otherwise.

B1: HPPDm-8-02: nucleotide sequence encoding AsHPPDm-A111T-K351N-F372A-F383W with mutated C-terminal; vector DBN11789 (nucleic acid)
DNA: ATGCCACCTACTCCAGCTACAGCTACTGGTGCTGCTGCTGCTGCCGTTACTCCTGAGCACGCTGCCAGGTCATTCCCCAGGGTGGTTCGCGTGAACCCCAGATCTGATAGGTTCCCAGTTCTGAGCTTCCACCATGTTGAGCTGTGGTGCGCTGATGCTGCTTCTGCTGCTGGCAGGTTCTCTTTCGCTCTTGGTGCTCCACTCGCTGCTAGATCTGATCTGTCTACAGGAAATAGCGCTCATGCCTCACTCCTGCTTCGCTCAGGTGCTTTGGCCTTCCTCTTCACCGCTCCATATGCTCCCCCACCTCAGGAGGCTGCTACTGCTGCTACTACAGCCTCCATTCCAAGCTTCTCAGCTGATGCCGCTAGAACCTTCGCTGCTGCTCATGGACTTGCCGTGAGGTCTGTTGGTGTTCGCGTGGCTGATGCTGCTGAGGCTTTCAGAGTTTCCGTTGCCGGCGGAGCTAGGCCAGCTTTCGCTCCTGCTGATTTGGGACATGGTTTCGGCCTGGCTGAGGTTGAGCTTTACGGTGACGTGGTTCTCCGCTTCGTGTCTTACCCAGATGAGACTGACCTGCCTTTCCTTCCCGGCTTCGAGAGAGTTTCCTCTCCTGGTGCCGTGGATTACGGCCTGACAAGGTTCGACCACGTGGTTGGAAACGTTCCCGAGATGGCTCCAGTGATCGATTACATGAAGGGCTTCCTTGGATTCCATGAGTTCGCCGAGTTCACTGCTGAGGACGTGGGAACCACTGAGTCCGGTTTGAACTCTGTGGTTCTCGCCAACAATTCTGAGGCTGTTTTGCTCCCTCTGAATGAGCCTGTGCATGGAACCAAGAGGAGAAGCCAGATTCAAACTTACCTGGAGTACCACGGTGGCCCTGGAGTTCAGCATATCGCCCTTGCTTCTAATGATGTGTTGCGCACACTCAGAGAGATGCGCGCCAGAACCCCCATGGGAGGTTTCGAGTTCATGGCCCCACCACAGGCTAAGTACTACGAGGGCGTTAGAAGGATTGCTGGAGACGTGTTGAGCGAGGAGCAGATCAATGAGTGCCAAGAGCTGGGTGTTCTTGTGGATAGGGATGACCAGGGCGTTCTGCTTCAAATTGCCACTAAGCCAGTGGGCGACCGCCCTACATTCTGGCTTGAGATGATTCAAAGAATCGGCTGCATGGAGAAGGATGAGGTTGGACAGGAGTACCAAAAGGGCGGATGCGGTGGCTTCGGAAAGGGTAACTTCAGCGAGTTGTTCAAGTCAATCGAGGAGTATGAGAAGACCTTGGAGGCCAAGCAGCTCGTGGGTTGA
modifications: mutated C-terminus; HPPDm-8-02 Nucleotide Sequence
notes: vector DBN11789
B2: HPPDm-9-02: nucleotide sequence encoding AsHPPDm-A106G-K351N-F372A-F383W with mutated C-terminal; vector DBN11790 (nucleic acid)
DNA: B1 DNA with C317G, A331G
modifications: mutated C-terminus; HPPDm-9-02 Nucleotide Sequence
notes: vector DBN11790

Assays:
Type in all cases: in vivo
[1] = tested on: Arabidopsis thaliana T1 plants; assay: Mesotrione tolerance of transgenic Arabidopsis thaliana T1 plants (spray, bleached leaf area grade, damage score); design: Scores: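 damage score 0-100 computed as Σ(N×S)/(T×M)×100 over grades 0-3 with higher meaning more damage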; conditions: Table 12; for Classification and statistics of the grade of pesticide damage Grade 0: number of plants at grade 0; for Classification and statistics of the grade of pesticide damage Grade 1: number of plants at grade 1; for Classification and statistics of the grade of pesticide damage Grade 2: number of plants at grade 2; for Classification and statistics of the grade of pesticide damage Grade 3: number of plants at grade 3; for Scores: pesticide damage score
How it was run: (§1)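 Damage was assessed by bleaching grade (0 none; 1 <50%; 2 >50%; 3 100% of leaf area) one week after spraying. Sprays on 18-day-old T1 and wild-type plants used field-rate multiples: topramezone 25–200, isoxaflutole 35–280, mesotrione 52.5–420 g ai/ha.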

[2] = tested on: Arabidopsis thaliana T1 plants; assay: Isoxaflutole tolerance of transgenic Arabidopsis thaliana T1 plants (spray, bleached leaf area grade, damage score); conditions: Table 11; for Classification and statistics of the grade of pesticide damage Grade 0: number of plants at grade 0; for Classification and statistics of the grade of pesticide damage Grade 1: number of plants at grade 1; for Classification and statistics of the grade of pesticide damage Grade 2: number of plants at grade 2; for Classification and statistics of the grade of pesticide damage Grade 3: number of plants at grade 3; for Scores: pesticide damage score;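 for Scores: Weighted damage index from 0 to 100 where higher means more damage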
How it was run: as §1

[3] = tested on: Arabidopsis thaliana T1 plants; assay: Topramezone tolerance of transgenic Arabidopsis thaliana T1 plants (spray, bleached leaf area grade, damage score); conditions: Table 10; for Classification and statistics of the grade of pesticide damage Grade 0: number of plants at grade 0; for Classification and statistics of the grade of pesticide damage Grade 1: number of plants at grade 1; for Classification and statistics of the grade of pesticide damage Grade 2: number of plants at grade 2; for Classification and statistics of the grade of pesticide damage Grade 3: number of plants at grade 3; for Scores: pesticide damage score
How it was run: as §1

Molecule | Resistance evaluation ([1]; mesotrione 210 g ai/ha (2×)) | Classification and statistics of the grade of pesticide damage Grade 0 ([1]; mesotrione 210 g ai/ha (2×)) | Classification and statistics of the grade of pesticide damage Grade 1 ([1]; mesotrione 210 g ai/ha (2×)) | Classification and statistics of the grade of pesticide damage Grade 2 ([1]; mesotrione 210 g ai/ha (2×)) | Classification and statistics of the grade of pesticide damage Grade 3 ([1]; mesotrione 210 g ai/ha (2×)) | Scores ([1]; mesotrione 210 g ai/ha (2×)) | Resistance evaluation ([1]; mesotrione 420 g ai/ha (4×)) | Classification and statistics of the grade of pesticide damage Grade 0 ([1]; mesotrione 420 g ai/ha (4×)) | Classification and statistics of the grade of pesticide damage Grade 1 ([1]; mesotrione 420 g ai/ha (4×)) | Classification and statistics of the grade of pesticide damage Grade 2 ([1]; mesotrione 420 g ai/ha (4×)) | Classification and statistics of the grade of pesticide damage Grade 3 ([1]; mesotrione 420 g ai/ha (4×)) | Scores ([1]; mesotrione 420 g ai/ha (4×)) | Resistance evaluation ([2]; isoxaflutole 140 g ai/ha (2×)) | Classification and statistics of the grade of pesticide damage Grade 0 ([2]; isoxaflutole 140 g ai/ha (2×)) | Classification and statistics of the grade of pesticide damage Grade 1 ([2]; isoxaflutole 140 g ai/ha (2×)) | Classification and statistics of the grade of pesticide damage Grade 2 ([2]; isoxaflutole 140 g ai/ha (2×)) | Classification and statistics of the grade of pesticide damage Grade 3 ([2]; isoxaflutole 140 g ai/ha (2×)) | Scores ([2]; isoxaflutole 140 g ai/ha (2×)) | Resistance evaluation ([2]; isoxaflutole 280 g ai/ha (4×)) | Classification and statistics of the grade of pesticide damage Grade 0 ([2]; isoxaflutole 280 g ai/ha (4×)) | other results
B1 | Highly resistant | 16 | 0 | 0 | 0 | 0 | Highly resistant | 16 | 0 | 0 | 0 | 0 | Highly resistant | 16 | 0 | 0 | 0 | 0 | Highly resistant | 16 | Classification and statistics of the grade of pesticide damage Grade 1 ([2]; isoxaflutole 280 g ai/ha (4×)): 0; Classification and statistics of the grade of pesticide damage Grade 2 ([2]; isoxaflutole 280 g ai/ha (4×)): 0; Classification and statistics of the grade of pesticide damage Grade 3 ([2]; isoxaflutole 280 g ai/ha (4×)): 0; Scores ([2]; isoxaflutole 280 g ai/ha (4×)): 0; Resistance evaluation ([3]; topramezone 100 g ai/ha (4×)): Highly resistant; Classification and statistics of the grade of pesticide damage Grade 0 ([3]; topramezone 100 g ai/ha (4×)): 16; Classification and statistics of the grade of pesticide damage Grade 1 ([3]; topramezone 100 g ai/ha (4×)): 0; Classification and statistics of the grade of pesticide damage Grade 2 ([3]; topramezone 100 g ai/ha (4×)): 0; Classification and statistics of the grade of pesticide damage Grade 3 ([3]; topramezone 100 g ai/ha (4×)): 0; Scores ([3]; topramezone 100 g ai/ha (4×)): 0; Resistance evaluation ([3]; topramezone 200 g ai/ha (8×)): Highly resistant; Classification and statistics of the grade of pesticide damage Grade 0 ([3]; topramezone 200 g ai/ha (8×)): 16; Classification and statistics of the grade of pesticide damage Grade 1 ([3]; topramezone 200 g ai/ha (8×)): 0; Classification and statistics of the grade of pesticide damage Grade 2 ([3]; topramezone 200 g ai/ha (8×)): 0; Classification and statistics of the grade of pesticide damage Grade 3 ([3]; topramezone 200 g ai/ha (8×)): 0; Scores ([3]; topramezone 200 g ai/ha (8×)): 0
B2 | Highly resistant | 16 | 0 | 0 | 0 | 0 | Highly resistant | 16 | 0 | 0 | 0 | 0 | Highly resistant | 16 | 0 | 0 | 0 | 0 | Highly resistant | 16 | Classification and statistics of the grade of pesticide damage Grade 1 ([2]; isoxaflutole 280 g ai/ha (4×)): 0; Classification and statistics of the grade of pesticide damage Grade 2 ([2]; isoxaflutole 280 g ai/ha (4×)): 0; Classification and statistics of the grade of pesticide damage Grade 3 ([2]; isoxaflutole 280 g ai/ha (4×)): 0; Scores ([2]; isoxaflutole 280 g ai/ha (4×)): 0; Resistance evaluation ([3]; topramezone 100 g ai/ha (4×)): Highly resistant; Classification and statistics of the grade of pesticide damage Grade 0 ([3]; topramezone 100 g ai/ha (4×)): 16; Classification and statistics of the grade of pesticide damage Grade 1 ([3]; topramezone 100 g ai/ha (4×)): 0; Classification and statistics of the grade of pesticide damage Grade 2 ([3]; topramezone 100 g ai/ha (4×)): 0; Classification and statistics of the grade of pesticide damage Grade 3 ([3]; topramezone 100 g ai/ha (4×)): 0; Scores ([3]; topramezone 100 g ai/ha (4×)): 0; Resistance evaluation ([3]; topramezone 200 g ai/ha (8×)): Highly resistant; Classification and statistics of the grade of pesticide damage Grade 0 ([3]; topramezone 200 g ai/ha (8×)): 16; Classification and statistics of the grade of pesticide damage Grade 1 ([3]; topramezone 200 g ai/ha (8×)): 0; Classification and statistics of the grade of pesticide damage Grade 2 ([3]; topramezone 200 g ai/ha (8×)): 0; Classification and statistics of the grade of pesticide damage Grade 3 ([3]; topramezone 200 g ai/ha (8×)): 0; Scores ([3]; topramezone 200 g ai/ha (8×)): 0
